Results as given in PMC4565669, “Insulin and mTOR Pathway Regulate HDAC3-Mediated Deacetylation and Activation of PGK1” (PLoS Biology, 2015).
Values belong to the molecule of their own block, whether it stands above or below them.

Experiments:
PGK1 [1] = biological target: PGK1 (UniProt P00558); assay: co-IP with HA beads, Flag blot; settings: reference: wild type HDAC3, insulin-treated; sites S424
PGK1 [2] = biological target: PGK1 (UniProt P00558); assay: co-IP of HA-HDAC3, PGK1 blot; settings: reference: wild type HA-HDAC3; sites S424
GST-HDAC3 (recombinant) = biological target: T1, GST-HDAC3 (recombinant) (UniProt O15379-1 1-428); assay: pull-down; in vitro pull-down with recombinant GST-HDAC3 (30 ug) and His-PGK1 (10 ug) purified from E. coli; details in S1 Text; settings: both partners purified
T1 construct: source: E. coli, purified
T1 sequence (O15379 whole entry): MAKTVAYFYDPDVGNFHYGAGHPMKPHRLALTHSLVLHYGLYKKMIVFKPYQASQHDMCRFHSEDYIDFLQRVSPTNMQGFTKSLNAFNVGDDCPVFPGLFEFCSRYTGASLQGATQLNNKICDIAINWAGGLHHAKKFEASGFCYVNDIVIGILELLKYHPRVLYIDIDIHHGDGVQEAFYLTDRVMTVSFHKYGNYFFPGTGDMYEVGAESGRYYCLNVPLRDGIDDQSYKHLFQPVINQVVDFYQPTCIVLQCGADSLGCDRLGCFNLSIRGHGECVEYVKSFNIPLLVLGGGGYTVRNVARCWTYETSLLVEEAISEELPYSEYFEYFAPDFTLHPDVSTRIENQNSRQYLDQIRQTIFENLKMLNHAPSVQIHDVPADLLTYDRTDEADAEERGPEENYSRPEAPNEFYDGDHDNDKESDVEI

binding against the reference (PGK1 [1]): weaker
Molecule: HDAC3 (from UniProt O15379) S424A, insulin-treated

binding against the reference (PGK1 [2]): weaker
Molecule: HDAC3 (from UniProt O15379) S424A

binding result (GST-HDAC3 (recombinant)): binds
B1: His-PGK1 (recombinant) (enzyme, human, UniProt P00558 1-417, looked up)
chain: MSLSNKLTLDKLDVKGKRVVMRVDFNVPMKNNQITNNQRIKAAVPSIKFCLDNGAKSVVLMSHLGRPDGVPMPDKYSLEPVAVELKSLLGKDVLFLKDCVGPEVEKACANPAAGSVILLENLRFHVEEEGKGKDASGNKVKAEPAKIEAFRASLSKLGDVYVNDAFGTAHRAHSSMVGVNLPQKAGGFLMKKELNYFAKALESPERPFLAILGGAKVADKIQLINNMLDKVNEMIIGGGMAFTFLKVLNNMEIGTSLFDEEGAKIVKDLMSKAEKNGVKITLPVDFVTADKFDENAKTGQATVASGIPAGWMGLDCGPESSKKYAEAVTRAKQIVWNGPVGVFEWEAFARGTKALMDEVVKATSRGCITIIGGGDTATCCAKWNTEDKVSHVSTGGGASLELLEGKVLPGVDALSNI
notes: Phosphoglycerate kinase 1 (PGK1), human, Gene ID 5230; unacetylated recombinant protein; also called His-tagged PGK1; source: E. coli, purified
